Columns and labels:
[1] = target: cynomolgus TIGIT on cells (cynomolgus monkey); experiment: flow cytometry on CHO-cynoTIGIT cells
[2] = target: human TIGIT on cells (human) (UniProt Q495A1); experiment: flow cytometry on activated human primary T cells (CD3/CD28 beads + IL-2, 48 h), fluorescent secondary antibody; y axis Positive cells(%), x axis Concentration(nM); EC50 from the table drawn under the curves
[3] = target: cynomolgus TIGIT-his protein (cynomolgus monkey); experiment: BLI (ForteBio), IgG on AHQ sensor, 100 nM TIGIT-his, monovalent, 1:1 model
[4] = target: human TIGIT-his protein (human) (UniProt Q495A1); experiment: as above
[5] = target: human TIGIT on cells (human) (UniProt Q495A1); experiment: flow cytometry, blocking of human CD155-mouse IgG2a Fc (2 ug/mL) binding to CHO-huTIGIT cells
[6] = target: human TIGIT on cells (human) (UniProt Q495A1); experiment: flow cytometry on CHO-huTIGIT cells

Sequence of human TIGIT on cells (human) (Q495A1 22-244): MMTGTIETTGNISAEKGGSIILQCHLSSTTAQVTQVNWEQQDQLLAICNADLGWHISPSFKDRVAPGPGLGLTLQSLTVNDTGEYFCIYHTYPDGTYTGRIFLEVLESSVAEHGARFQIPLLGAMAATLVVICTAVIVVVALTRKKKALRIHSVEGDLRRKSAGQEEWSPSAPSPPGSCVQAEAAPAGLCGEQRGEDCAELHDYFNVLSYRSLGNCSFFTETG
Sequence of cynomolgus TIGIT on cells (cynomolgus monkey) (chain, as listed by the source): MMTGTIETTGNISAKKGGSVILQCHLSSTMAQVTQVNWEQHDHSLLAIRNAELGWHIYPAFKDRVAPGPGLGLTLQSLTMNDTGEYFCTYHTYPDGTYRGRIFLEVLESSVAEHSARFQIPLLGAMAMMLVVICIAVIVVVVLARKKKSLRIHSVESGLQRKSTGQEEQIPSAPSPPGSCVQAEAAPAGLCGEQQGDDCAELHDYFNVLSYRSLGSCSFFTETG
Sequence of cynomolgus TIGIT-his protein (cynomolgus monkey) (chain, as listed by the source): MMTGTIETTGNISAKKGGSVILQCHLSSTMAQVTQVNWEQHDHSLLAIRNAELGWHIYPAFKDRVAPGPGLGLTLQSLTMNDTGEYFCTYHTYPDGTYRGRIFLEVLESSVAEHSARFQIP
Sequence of human TIGIT-his protein (human) (Q495A1 22-141): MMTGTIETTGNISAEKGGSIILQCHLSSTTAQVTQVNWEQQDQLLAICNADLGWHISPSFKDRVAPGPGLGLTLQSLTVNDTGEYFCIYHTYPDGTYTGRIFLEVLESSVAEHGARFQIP

EC50 [1]: 4.18 nM
EC50 [2]: 0.274 nM
Kd [3]: 3.5 nM
Kd [4]: 0.87 nM
IC50 [5]: 0.63 nM
EC50 [6]: 1.35 nM
Substance: Tiragolumab (antibody)

— patent US20240352118A1
